Source: publication doi:10.1101/2024.07.29.605598 (bioRxiv, 2024)
Several values for one entry are separate records, joined by “and”; a condition that tells them apart may be missing. Equal entries are not always repeated.

B1: Drosophila melanogaster GTPase Rap1 G12V (amino acids 1-180), GMPPNP-loaded (enzyme, UniProt P08645 1-180, looked up)
chain: MREYKIVVLGSVGVGKSALTVQFVQCIFVEKYDPTIEDSYRKQVEVDGQQCMLEILDTAGTEQFTAMRDLYMKNGQGFVLVYSITAQSTFNDLQDLREQILRVKDTDDVPMVLVGNKCDLEEERVVGKELGKNLATQFNCAFMETSAKAKVNVNDIFYDLVRQINKKSPEKKQKKPKKSL
B2: Drosophila melanogaster Cno RA2 domain (amino acids 222-350) (domain or fragment, UniProt Q24279 222-350, looked up)
chain: TRSISNPEAVMRRRRQQKLEKKLQQFRSRDGGPDTGGTLKIYGESLCQDVPYKTLLLSIRDCAQAVVREMLTKYGLEKADPLHYCLVQVNSDGTEYILDDDECPLSILMNHPTSRGSIMFHVRRRPADS
B3: Drosophila melanogaster Cno RA1 domain (amino acids 1-137) (domain or fragment, UniProt Q24279 1-137, looked up)
chain: MSHDKKMLDREAVRSVIQQWNANRLDLFALSEPDENLLFHGVMRFYFQDAGQKVATKCIRVASDATVTDVIDTLIEKFRPDMRMLSVPNYALYEVHANGEERRLNADEKPLLVQLNWHIDDREGRFLLKNIDQKTTP

Assays:
[1] = biological target: B2; assay: ITC
[2] = biological target: B3; assay: ITC
[3] = biological target: B3; assay: SEC-MALS
[4] = biological target: B1; assay: ITC

With B1 the dH [1] was -3070 cal/mol and -2180 cal/mol and -2720 cal/mol, the “stoichiometry N” value [1] was 0.755 and 0.73 and 0.63 and the dH [2] was -4380 cal/mol and -4790 cal/mol. The “stoichiometry N” value [2] was 0.717 and the “stoichiometry N” value [3] was 1.

B2 was tested, and the Kd [4] was 8.8 µM and 7.9 µM and 8.7 µM.

For B3, the Kd [4] was 4.5 µM and 5.9 µM.
